Here are results for four molecules from patent US20220153851A1 (Five Prime, published 2022).

In assay [1] the target is T1, cynoCSF1R ECD-Fc (cynomolgus).
T1 construct: also called cynomolgus CSF1R ECD
Briefly: competition ELISA, blocking of human IL34 binding to cynoCSF1R ECD-Fc. (An ELISA detects its analyte on a solid surface through an enzyme-linked reagent.)

Assay [2] addresses human CSF1R on CSF1R (SEQ ID NO: 2)-transfected CHO cells (human, UniProt P07333 20-972). As to the kind of experiment: cell-based or functional assay.
A further assay concerns the target T2, hCSF1R ECD.506 (human, UniProt P07333 20-506).
T2 construct: also called human CSF1R ECD
Briefly: SPR Biacore T100, antibody captured on anti-human IgG, hCSF1R ECD.506 as analyte, 1:1 model. The procedure:
The kₐ, kd, and KD for binding to human CSF1R ECD was determined for each of the humanized antibodies as follows.
Binding kinetics of anti-CSF1R humanized antibodies to CSF1R ECD was determined using Biacore T100 Surface Plasmon Resonance (SPR) (GE Healthcare Life Sciences, Piscataway, N.Y.). Each of the humanized anti-CSF1R antibodies was captured on a CM5 sensor chip immobilized with anti-Human IgG antibody using the Human antibody capture kit (GE Healthcare Life Sciences, Piscataway, N.Y.) at 150 RU so that the Rmax value for hCSF1R ECD.506 (SEQ ID NO: 5) binding was 100 RU. Rmax values of less than 150 RU are recommended for accurately determining kinetic values. […] The association constant, dissociation constant, affinity, and binding capacity of each of the Fabs for human CSF1R ECD was calculated using the Biacore T100 Evaluation software package using the 1:1 binding model.

Another assay concerns the target T3, mCSF1R ECD-Fc (mouse).
T3 construct: also called mouse CSF1R ECD
Briefly: ELISA, plate coated with mCSF1R ECD-Fc, detection anti-human kappa-HRP, A450. The procedure: (§1) Ninety-six well clear-bottom ELISA plates were coated overnight with 1 μg/ml recombinant hCSF1R ECD.506-Fc (SEQ ID NO: 6; FivePrime Therapeutics) or Human M-CSF R Fc Chimera (R&D Systems) in PBS. The next morning, wells were washed four times with 0.05% Tween20 in PBS (PBST) and blocked with Blocker-Blotto (Pierce). Fifty μl of 0.5× serial dilutions of the humanized antibody or parental chimeric antibody, beginning with 2000 ng/ml, diluted 1:1 in Blocker-Blotto were added to the CSF1R-coated wells. After incubation at room temperature (RT) for 90 min, wells were washed four times with PBST, and a 1:5000 dilution of a peroxidase-conjugated Goat anti-Human kappa Light chain antibody (Sigma) in Blocker-Blotto was added to each well. After incubation at RT for 60 min, wells were washed four times with PBST, and 50 μl o-phenylenediamine dihydrochloride peroxidase substrate (Sigma) was added to each well. After incubation at RT for 30 min, A450 values of each well were read directly on a SpectraMaxPlus spectrophotometer with SoftMaxPro software (Molecular Devices).
The binding curve for each humanized antibody binding to mouse CSF1R ECD was determined as described above for human CSF1R, except the wells of the clear-bottom ELISA plates were coated overnight with 2 μg/ml recombinant mCSF1R ECD-Fc (FivePrime Therapeutics, SEQ ID NO: 93).

In assay [3] the target is T1, cynoCSF1R ECD-Fc. Briefly: ELISA, plate coated with cynoCSF1R ECD-Fc. The procedure: as §1
The binding curve for each humanized antibody binding to cynomolgus CSF1R ECD was determined as described above for human CSF1R, except the wells of the clear-bottom ELISA plates were coated overnight with 2 μg/ml recombinant cynoCSF1R ECD-Fc (FivePrime Therapeutics, SEQ ID NO: 8, but without the 19 amino acid leader sequence).

The target of assay [4] is T1, cynoCSF1R ECD-Fc. Briefly: competition ELISA, blocking of human CSF1 binding to cynoCSF1R ECD-Fc. The procedure:
The humanized antibodies, along with the parental chimeric antibodies (cAbs), were tested for their ability to block human CSF1 binding to human and cynomolgus CSF1R ECD, as follows.
Recombinant Human CSF1 (M-CSF; R&D Systems) was biotinylated using an NH₂-Biotin Labeling Kit (Dojindo Molecular Technologies). One hundred μl of 1 μg/ml biotinylated CSF1 in PBST/0.1% BSA was added to the wells of Reacti-Bind Streptavidin coated plates (Pierce) pre-blocked with SuperBlock blocking buffer (Pierce) according to the manufacturer's instructions. Fifty μl of 0.5× serial dilutions of the humanized antibody or parental chimeric antibody, beginning with 2000 ng/ml, was incubated with 50 ng/ml hCSF1R ECD.506-Fc (SEQ ID NO: 6; FivePrime Therapeutics) or 50 ng/ml cynoCSF1R ECD-Fc (FivePrime Therapeutics, SEQ ID NO: 8, but without the 19 amino acid leader sequence) in 100 μl PBST/0.1% BSA for 90 min at RT, after which the admix was transferred to one or more wells of a ligand-coated plate. After 90 min at RT, wells were washed with PBST, and a 1:5000 dilution of an Fc-fragment-specific peroxidase-conjugated goat anti-human IgG (Jackson Immuno Research) in PBST/0.1% BSA was added to each well. After incubation at RT for 60 min, wells were washed with PBST/0.1% BSA, and o-phenylenediamine dihydrochloride peroxidase substrate (Sigma) was added to each well. After incubation at RT for 30 min, A450 values of each well were read directly on a SpectraMaxPlus spectrophotometer with SoftMaxPro software (Molecular Devices).

The target of another assay is T4, hCSF1R ECD.506-Fc (human).
T4 construct: also called human CSF1R ECD-Fc fusion protein; human CSF1R ECD
T4 sequence (chain, as listed by the source limits assumed): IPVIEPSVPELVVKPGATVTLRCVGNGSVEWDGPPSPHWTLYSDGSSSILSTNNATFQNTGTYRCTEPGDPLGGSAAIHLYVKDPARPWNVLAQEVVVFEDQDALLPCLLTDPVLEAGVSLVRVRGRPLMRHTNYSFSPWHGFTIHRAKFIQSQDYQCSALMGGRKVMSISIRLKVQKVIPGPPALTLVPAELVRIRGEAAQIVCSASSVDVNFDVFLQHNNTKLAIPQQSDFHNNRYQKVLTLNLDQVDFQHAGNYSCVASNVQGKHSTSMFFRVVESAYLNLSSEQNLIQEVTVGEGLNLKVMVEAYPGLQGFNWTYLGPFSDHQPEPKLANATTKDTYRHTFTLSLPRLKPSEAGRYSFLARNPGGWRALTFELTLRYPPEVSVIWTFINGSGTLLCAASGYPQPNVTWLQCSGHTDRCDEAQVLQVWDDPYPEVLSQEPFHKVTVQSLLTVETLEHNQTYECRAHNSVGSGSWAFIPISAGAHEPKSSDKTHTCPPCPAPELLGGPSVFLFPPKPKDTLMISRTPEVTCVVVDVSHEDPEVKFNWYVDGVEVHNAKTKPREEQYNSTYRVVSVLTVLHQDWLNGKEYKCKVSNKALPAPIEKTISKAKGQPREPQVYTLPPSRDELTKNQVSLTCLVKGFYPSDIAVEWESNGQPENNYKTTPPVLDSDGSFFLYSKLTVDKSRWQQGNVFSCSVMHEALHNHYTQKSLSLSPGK
Briefly: ELISA, plate coated with human CSF1R ECD-Fc. The procedure: as §1

A word on the IC50: it is the point on the concentration scale where inhibition reaches its midpoint. A low value points to greater potency in that assay. The term Kd denotes the concentration at which binding is half-saturated. The low end stands for higher affinity, the high end for lower affinity. Broadly, the koff is the rate constant with which the complex falls apart. By kon is commonly meant a measure of how fast the partners come together. What is called EC50 is the concentration that produces a half-maximal response. A low value points to a more potent agent.

Sequence of human CSF1R on CSF1R (SEQ ID NO: 2)-transfected CHO cells (P07333 20-972): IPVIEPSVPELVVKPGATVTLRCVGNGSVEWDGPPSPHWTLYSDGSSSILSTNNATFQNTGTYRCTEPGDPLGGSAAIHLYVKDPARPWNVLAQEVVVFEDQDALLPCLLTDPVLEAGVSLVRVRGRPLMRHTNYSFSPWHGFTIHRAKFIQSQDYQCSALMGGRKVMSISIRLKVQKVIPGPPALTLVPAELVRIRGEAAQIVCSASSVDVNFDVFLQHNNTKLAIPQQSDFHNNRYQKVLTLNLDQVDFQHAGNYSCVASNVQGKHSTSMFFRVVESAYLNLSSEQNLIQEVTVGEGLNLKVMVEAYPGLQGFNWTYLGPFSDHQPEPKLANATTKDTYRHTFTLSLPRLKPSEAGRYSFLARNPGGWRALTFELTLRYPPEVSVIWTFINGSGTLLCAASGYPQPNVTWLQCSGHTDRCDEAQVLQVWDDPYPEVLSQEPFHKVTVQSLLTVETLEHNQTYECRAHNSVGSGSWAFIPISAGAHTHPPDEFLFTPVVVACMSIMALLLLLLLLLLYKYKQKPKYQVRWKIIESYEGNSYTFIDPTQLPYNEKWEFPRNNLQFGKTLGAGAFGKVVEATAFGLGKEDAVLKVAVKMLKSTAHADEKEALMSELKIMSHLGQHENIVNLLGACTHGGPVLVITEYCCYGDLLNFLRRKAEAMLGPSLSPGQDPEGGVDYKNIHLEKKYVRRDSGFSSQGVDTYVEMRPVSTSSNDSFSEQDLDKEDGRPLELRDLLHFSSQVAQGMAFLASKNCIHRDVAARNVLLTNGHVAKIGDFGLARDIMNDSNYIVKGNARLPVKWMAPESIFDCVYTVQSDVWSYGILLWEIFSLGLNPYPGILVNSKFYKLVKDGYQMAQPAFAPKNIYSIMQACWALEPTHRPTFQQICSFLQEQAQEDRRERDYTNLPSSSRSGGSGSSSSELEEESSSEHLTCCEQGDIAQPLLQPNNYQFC
T1 sequence (chain, as listed by the source): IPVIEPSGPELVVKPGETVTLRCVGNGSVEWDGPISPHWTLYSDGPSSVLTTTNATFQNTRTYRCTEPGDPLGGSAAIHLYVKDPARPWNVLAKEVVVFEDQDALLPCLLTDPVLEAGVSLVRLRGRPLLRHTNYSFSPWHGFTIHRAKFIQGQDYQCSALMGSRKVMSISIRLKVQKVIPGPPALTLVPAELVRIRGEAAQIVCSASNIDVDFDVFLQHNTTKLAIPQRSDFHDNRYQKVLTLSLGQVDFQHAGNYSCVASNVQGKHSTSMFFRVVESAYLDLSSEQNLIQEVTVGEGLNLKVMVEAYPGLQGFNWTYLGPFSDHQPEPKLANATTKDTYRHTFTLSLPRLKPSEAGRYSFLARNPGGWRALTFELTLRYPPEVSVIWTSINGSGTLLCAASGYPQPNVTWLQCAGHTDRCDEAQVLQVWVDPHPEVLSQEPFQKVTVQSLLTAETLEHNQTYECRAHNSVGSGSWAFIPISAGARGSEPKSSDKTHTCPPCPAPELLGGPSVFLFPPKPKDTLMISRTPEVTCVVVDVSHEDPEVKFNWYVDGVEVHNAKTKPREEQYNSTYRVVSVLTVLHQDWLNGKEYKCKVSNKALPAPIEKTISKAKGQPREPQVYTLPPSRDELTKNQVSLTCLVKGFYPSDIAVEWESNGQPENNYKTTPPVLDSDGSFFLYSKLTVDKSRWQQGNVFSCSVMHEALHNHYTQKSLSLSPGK
T2 sequence (P07333 20-506): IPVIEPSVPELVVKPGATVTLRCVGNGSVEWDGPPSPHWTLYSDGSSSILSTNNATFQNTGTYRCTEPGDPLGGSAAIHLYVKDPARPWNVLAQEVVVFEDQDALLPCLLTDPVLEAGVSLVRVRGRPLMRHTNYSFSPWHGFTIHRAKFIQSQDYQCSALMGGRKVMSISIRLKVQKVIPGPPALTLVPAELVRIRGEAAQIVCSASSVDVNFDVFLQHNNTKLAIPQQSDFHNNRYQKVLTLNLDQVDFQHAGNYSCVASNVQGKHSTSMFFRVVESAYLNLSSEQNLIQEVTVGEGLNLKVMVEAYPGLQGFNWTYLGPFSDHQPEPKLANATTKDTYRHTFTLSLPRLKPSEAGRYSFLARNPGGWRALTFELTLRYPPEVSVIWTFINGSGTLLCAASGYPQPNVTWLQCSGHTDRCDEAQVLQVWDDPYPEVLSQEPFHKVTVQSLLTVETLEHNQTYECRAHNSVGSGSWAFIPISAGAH
T3 sequence (chain, as listed by the source limits assumed): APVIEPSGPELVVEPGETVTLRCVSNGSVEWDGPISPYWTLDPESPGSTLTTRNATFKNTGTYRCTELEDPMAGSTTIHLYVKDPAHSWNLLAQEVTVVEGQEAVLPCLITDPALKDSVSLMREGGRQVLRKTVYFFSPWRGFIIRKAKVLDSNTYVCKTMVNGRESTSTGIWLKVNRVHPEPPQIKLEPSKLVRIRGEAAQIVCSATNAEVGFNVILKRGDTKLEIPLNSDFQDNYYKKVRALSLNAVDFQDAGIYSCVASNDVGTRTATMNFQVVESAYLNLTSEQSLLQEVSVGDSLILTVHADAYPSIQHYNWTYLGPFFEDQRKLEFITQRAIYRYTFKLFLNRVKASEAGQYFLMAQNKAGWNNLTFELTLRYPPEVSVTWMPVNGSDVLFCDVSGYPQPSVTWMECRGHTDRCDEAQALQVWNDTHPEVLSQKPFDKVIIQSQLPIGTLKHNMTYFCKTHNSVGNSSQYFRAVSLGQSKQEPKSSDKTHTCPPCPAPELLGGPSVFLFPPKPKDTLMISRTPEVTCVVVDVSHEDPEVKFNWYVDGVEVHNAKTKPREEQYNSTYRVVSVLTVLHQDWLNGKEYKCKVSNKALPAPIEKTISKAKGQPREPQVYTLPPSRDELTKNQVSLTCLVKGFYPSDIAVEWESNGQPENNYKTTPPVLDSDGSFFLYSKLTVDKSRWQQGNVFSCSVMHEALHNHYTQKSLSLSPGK

B1: h0311-L0H2 (antibody, human IgG4 S228P, kappa, V domains shown)
VH: QVQLVQSGAEVKKPGSSVKVSCKASGYIFTDYNMHWVRQAPGQGLEWMGEINPNNGVVVYNQKFKGTTTLTVDKSTSTAYMELSSLRSEDTAVYYCTRALYHSNFGWYFDSWGQGTLVTVSS
VL: EIVLTQSPATLSLSPGERATLSCKASQSVDYDGDSHMNWYQQKPGQAPRLLIYTASNLESGIPARFSGSGSGTDFTLTISSLEPEDFAVYYCQQGNEDPWTFGQGTKVEIKR
notes: also called Ab15; huAb 0311-L0H2
With B1, the IC50 in the assay with cynoCSF1R ECD-Fc [1] came out at 0.0408 µg/mL. In assay [2], the “IC50, inhibition of CSF1-induced CSF1R phosphorylation (head prints 'Human CSF1/Human CSF1R ECD IC50')” value turned out to be 0.435 µg/mL and the “IC50, inhibition of IL34-induced CSF1R phosphorylation (head prints 'Human IL34/Human CSF1R ECD IC50')” value stood at 0.633 µg/mL. Besides, in the assay with hCSF1R ECD.506, binding was characterised by a dissociation constant (Kd) of 0.35 nM, the koff was 0.000473 s⁻¹ and the kon stood at 1.34e+06 M⁻¹ s⁻¹. Also, the binding result with mCSF1R ECD-Fc is given as “no binding (tested: 2000 ng/ml)”. This molecule showed a half-maximal effective concentration (EC50) with cynoCSF1R ECD-Fc [3] of 0.0175 µg/mL. This molecule displayed an IC50 with cynoCSF1R ECD-Fc [4] of 0.026 µg/mL. This molecule registered an EC50 with hCSF1R ECD.506-Fc of 0.0115 µg/mL.

B2: h0302-L1H1 (antibody, human IgG4 S228P, kappa, V domains shown)
VH: QVQLVQSGAEVKKPGSSVKVSCKASGYTFSDFNIHWVRQAPGQGLEWMGYINPYTDVTVYNEKFKGRVTITSDKSTSTAYMELSSLRSEDTAVYYCASYFDGTFDYALDYWGQGTLVTVSS
VL: EIVLTQSPATLSLSPGERATLSCRASESVDNYGLSFMNWYQQKPGQAPRLLIYTASNLESGIPARFSGSGSRTDFTLTISSLEPEDFAVYYCQQSKELPWTFGQGTKVEIKR
notes: also called Ab8; huAb 0302-L1H1
On to B2, for which the IC50 with cynoCSF1R ECD-Fc [1] was determined as 0.676 µg/mL. Besides, in assay [2], the “IC50, inhibition of CSF1-induced CSF1R phosphorylation (head prints 'Human CSF1/Human CSF1R ECD IC50')” value was 0.742 µg/mL and the “IC50, inhibition of IL34-induced CSF1R phosphorylation (head prints 'Human IL34/Human CSF1R ECD IC50')” value turned out to be 0.364 µg/mL. In the assay with hCSF1R ECD.506, the equilibrium dissociation constant (Kd) amounted to 1.17 nM, the off-rate (koff) worked out at 0.00404 s⁻¹ and the association rate constant (kon) stood at 3.47e+06 M⁻¹ s⁻¹. In addition, the binding result with mCSF1R ECD-Fc is reported as “no binding (tested: 2000 ng/ml)”. Besides, the EC50 with cynoCSF1R ECD-Fc [3] was 1.06 µg/mL. This molecule returned a 50% inhibitory concentration (IC50) in the assay with cynoCSF1R ECD-Fc [4] of 0.0605 µg/mL. Moreover, a half-maximal effect with hCSF1R ECD.506-Fc (EC50) was put at 0.0214 µg/mL.

B3: h0311-L1H1 (antibody, human IgG4 S228P, kappa, V domains shown)
VH: QVQLVQSGAEVKKPGSSVKVSCKASGYIFTDYNMHWVRQAPGQGLEWMGEINPNNGVVVYNQKFKGRVTITVDKSTSTAYMELSSLRSEDTAVYYCTRALYHSNFGWYFDSWGQGTLVTVSS
VL: DIVLTQSPATLSLSPGERATLSCKASQSVDYDGDSHMNWYQQKPGQAPRLLIYTASNLESGIPARFSGSGSGADFTLTISSLEPEDFAVYYCQQGNEDPWTFGQGTKVEIKR
notes: also called Ab14; huAb 0311-L1H1
The molecule B3 registered a half-maximal inhibitory concentration (IC50) with cynoCSF1R ECD-Fc [1] of 0.0537 µg/mL. Moreover, in assay [2], the “IC50, inhibition of CSF1-induced CSF1R phosphorylation (head prints 'Human CSF1/Human CSF1R ECD IC50')” value is 0.508 µg/mL and the “IC50, inhibition of IL34-induced CSF1R phosphorylation (head prints 'Human IL34/Human CSF1R ECD IC50')” value was 0.667 µg/mL. Also, in the assay with hCSF1R ECD.506, the Kd came out at 0.5 nM, the dissociation rate constant (koff) was 0.000664 s⁻¹ and the kon was determined as 1.32e+06 M⁻¹ s⁻¹. Besides, the binding result with mCSF1R ECD-Fc is “no binding (tested: 2000 ng/ml)”. In addition, it took 0.0309 µg/mL to reach a half-maximal effect with cynoCSF1R ECD-Fc [3] (EC50). In addition, the IC50 with cynoCSF1R ECD-Fc [4] stood at 0.0247 µg/mL. Moreover, the EC50 with hCSF1R ECD.506-Fc was found to be 0.0143 µg/mL.

B4: h0302-L2H2 (antibody, human IgG4 S228P, kappa, V domains shown)
VH: QVQLVQSGAEVKKPGSSVKVSCKASGYTFSDFNIHWVRQAPGQGLEWIGYINPYTDVTVYNEKFKGRATLTSDKSTSTAYMELSSLRSEDTAVYYCASYFDGTFDYALDYWGQGTLVTVSS
VL: EIVVTQSPATLSLSPGERATLSCRASESVDNYGLSFMNWFQQKPGQAPRLLIYTASNLESGIPARFSGSGSRTDFTLTISSLEPEDFAVYYCQQSKELPWTFGQGTKVEIKR
notes: also called Ab12; huAb 0302-L2H2
Molecule B4 yielded a half-maximal inhibitory concentration (IC50) in the assay with cynoCSF1R ECD-Fc [1] of 0.279 µg/mL. Besides, in assay [2], the “IC50, inhibition of CSF1-induced CSF1R phosphorylation (head prints 'Human CSF1/Human CSF1R ECD IC50')” value came to 0.354 µg/mL and the “IC50, inhibition of IL34-induced CSF1R phosphorylation (head prints 'Human IL34/Human CSF1R ECD IC50')” value worked out at 0.24 µg/mL. In the assay with hCSF1R ECD.506, this molecule gave a dissociation constant Kd of 0.46 nM, a koff of 0.00084 s⁻¹ and an on-rate (kon) of 1.84e+06 M⁻¹ s⁻¹. Besides, in the assay with mCSF1R ECD-Fc, the binding result was “no binding (tested: 2000 ng/ml)”. In addition, the half-maximal effective concentration (EC50) in the assay with cynoCSF1R ECD-Fc [3] was found to be 0.018 µg/mL. Besides, the half-maximal inhibitory concentration (IC50) with cynoCSF1R ECD-Fc [4] amounted to 0.838 µg/mL. Besides, a half-maximal response with hCSF1R ECD.506-Fc (EC50) required 0.0101 µg/mL.
